Measured values from article PMC8670242, “Functional Characterization and Structural Insights Into Stereoselectivity of Pulegone Reductase in Menthol Biosynthesis” (Frontiers in Plant Science, 2021).

Target: the molecule itself
Experiment: SEC; gel filtration of purified wild type MpPR on HiLoad 16/60 Superdex 200 in 10 mM Tris-HCl pH 8.0, 50 mM NaCl, 5 mM MgCl2, 1 mM DTT; molecular mass calibrated with high and low molecular weight calibration kits

B1: (+)-pulegone reductase from Mentha piperita (enzyme)
chain: MVMNKQIVLNNYINGSLKQSDLALRTSTICMEIPDGCNGAILVKNLYLSVNPYLILRMGKLDIPQFDSILPGSTIVSYGVSKVLDSTHPSYEKGELIWGSQAGWEEYTLIQNPYNLFKIQDKDVPLSYYVGILGMPGMTAYAGFFEICSPKKGETVFVTAAAGSVGQLVGQFAKMFGCYVVGSAGSKEKVDLLKNKFGFDDAFNYKEESDYDTALKRHFPEGIDIYFDNVGGKMLEAVINNMRVHGRIAVCGMVSQYSLKQPEGVHNLLKLIPKQIRMQGFVVVDYYHLYPKFLEMVLPRIKEGKVTYVEDISEGLESAPSALLGVYVGRNVGNQVVAVSRE
notes: (+)-pulegone reductase, Mentha piperita, UniProt Q6WAU0; gene cloned into pET28a with NheI and HindIII; also called MpPR; wild type MpPR; source: E. coli BL21(DE3), purified (Ni-NTA, gel filtration on Superdex 200)
stoichiometry N: 2
